We go through two molecules from WO2017046774A2 (dated 2017).

Where only a bound is given, the exact number is not on record here.

Experiment [1] has as its target T1, recombinant laminin 511 (UniProt O15230 36-3695; P07942 22-1786; P11047 34-1609).
T1 construct: also called laminin 10 (α5β1γ1)
As to the kind of experiment: flow cytometry on CHO cells transfected with human MCAM, pan-laminin antibody.

In experiment [2] the target is T2, human MCAM C272A mutant (shotgun mutagenesis library clone, on cells) (human, UniProt P43121 24-646).
T2 construct: Expressed in BHK cells, immunodetection
T2 chain: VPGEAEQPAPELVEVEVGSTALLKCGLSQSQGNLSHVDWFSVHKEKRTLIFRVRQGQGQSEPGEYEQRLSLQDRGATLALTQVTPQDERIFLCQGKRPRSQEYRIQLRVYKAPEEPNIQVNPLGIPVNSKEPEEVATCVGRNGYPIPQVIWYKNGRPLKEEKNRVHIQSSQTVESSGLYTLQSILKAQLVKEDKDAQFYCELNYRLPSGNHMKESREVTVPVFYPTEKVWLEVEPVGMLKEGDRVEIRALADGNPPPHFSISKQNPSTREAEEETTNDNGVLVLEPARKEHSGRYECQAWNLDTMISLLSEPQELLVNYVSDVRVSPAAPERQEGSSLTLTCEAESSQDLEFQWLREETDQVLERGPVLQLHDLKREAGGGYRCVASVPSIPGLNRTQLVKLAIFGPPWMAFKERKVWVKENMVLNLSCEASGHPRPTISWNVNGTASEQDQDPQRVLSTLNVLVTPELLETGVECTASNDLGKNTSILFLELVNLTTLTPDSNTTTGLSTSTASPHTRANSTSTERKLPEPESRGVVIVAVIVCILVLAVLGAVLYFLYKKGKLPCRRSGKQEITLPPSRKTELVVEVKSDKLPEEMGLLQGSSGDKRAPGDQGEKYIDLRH
As to the kind of experiment: shotgun mutagenesis library, immunodetection on BHK cells, normalized to wild type MCAM.

B1: human MCAM (full length, expressed on the surface of transfected cells) (receptor)
chain: VPGEAEQPAPELVEVEVGSTALLKCGLSQSQGNLSHVDWFSVHKEKRTLIFRVRQGQGQSEPGEYEQRLSLQDRGATLALTQVTPQDERIFLCQGKRPRSQEYRIQLRVYKAPEEPNIQVNPLGIPVNSKEPEEVATCVGRNGYPIPQVIWYKNGRPLKEEKNRVHIQSSQTVESSGLYTLQSILKAQLVKEDKDAQFYCELNYRLPSGNHMKESREVTVPVFYPTEKVWLEVEPVGMLKEGDRVEIRCLADGNPPPHFSISKQNPSTREAEEETTNDNGVLVLEPARKEHSGRYECQAWNLDTMISLLSEPQELLVNYVSDVRVSPAAPERQEGSSLTLTCEAESSQDLEFQWLREETDQVLERGPVLQLHDLKREAGGGYRCVASVPSIPGLNRTQLVKLAIFGPPWMAFKERKVWVKENMVLNLSCEASGHPRPTISWNVNGTASEQDQDPQRVLSTLNVLVTPELLETGVECTASNDLGKNTSILFLELVNLTTLTPDSNTTTGLSTSTASPHTRANSTSTERKLPEPESRGVVIVAVIVCILVLAVLGAVLYFLYKKGKLPCRRSGKQEITLPPSRKTELVVEVKSDKLPEEMGLLQGSSGDKRAPGDQGEKYIDLRH
notes: also called CD146; MUC18
Take B1: the binding result in experiment [1] is recorded as “no binding (tested: 10 μg/ml)”.

B2: mouse anti-human MCAM monoclonal antibody clone 1749.1.3 (antibody, V domains shown)
VH: DVKLVESGGDLVKPGGSLKLSCAASGFTFSSYIMSWVRQTPEKRLEWVATISSGGSSTYYPDSVKGRFTISRDNAKNTLYLQMSSLKSEDTAMYYCTRDDDYDVKVFAYWGQGTLVTVSA
VL: DIVMSQSPSSLAVSAGEKVTMNCKSSRSLLNSRIRKNYLAWYQQKPGQSPKLLIYWASTRESGVPDRFTGSGSGTDFTLTISSVQAEDLAVYYCKQSYNLLTFGAGTKLELK
notes: Mouse hybridoma monoclonal antibody; also called m1749
Turning to B2, the “mean monoclonal antibody reactivity (% WT)” value in experiment [2] is under 30 % WT.
